Square brackets hold non-standard residues; d marks the D form. Ends that are not written are not given here. Nle = CCCC[C@H](N)C(=O)O; βAla = NCCC(=O)O
Assays:
Assay in all cases: cell-based or functional assay
[1] = target: MCR1 (human, UniProt Q01726 1-317)
[2] = target: MCR3 (human, UniProt P41968 1-323)
[3] = target: MCR4 (human, UniProt P32245 1-332)
[4] = target: MCR5 (human, UniProt P33032 1-325)
Sequence of MCR5 (P33032 whole entry): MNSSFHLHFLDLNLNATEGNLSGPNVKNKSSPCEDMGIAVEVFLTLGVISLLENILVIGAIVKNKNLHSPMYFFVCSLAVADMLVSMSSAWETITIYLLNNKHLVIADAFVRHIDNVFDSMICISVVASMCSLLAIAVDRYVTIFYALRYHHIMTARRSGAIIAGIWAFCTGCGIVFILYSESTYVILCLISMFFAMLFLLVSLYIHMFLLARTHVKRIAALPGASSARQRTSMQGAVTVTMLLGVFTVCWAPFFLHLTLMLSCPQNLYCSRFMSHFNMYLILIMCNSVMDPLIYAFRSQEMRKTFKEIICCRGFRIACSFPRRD

Sequence of MCR3 (P41968 whole entry): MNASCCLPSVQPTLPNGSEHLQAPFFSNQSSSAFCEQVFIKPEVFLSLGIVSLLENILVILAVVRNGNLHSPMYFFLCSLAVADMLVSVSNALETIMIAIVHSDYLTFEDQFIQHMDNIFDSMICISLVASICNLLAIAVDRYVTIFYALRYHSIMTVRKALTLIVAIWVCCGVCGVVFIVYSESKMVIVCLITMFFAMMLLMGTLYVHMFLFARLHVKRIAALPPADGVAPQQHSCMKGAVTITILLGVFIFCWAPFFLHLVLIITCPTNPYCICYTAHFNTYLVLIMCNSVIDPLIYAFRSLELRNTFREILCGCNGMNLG
Sequence of MCR1 (Q01726 whole entry): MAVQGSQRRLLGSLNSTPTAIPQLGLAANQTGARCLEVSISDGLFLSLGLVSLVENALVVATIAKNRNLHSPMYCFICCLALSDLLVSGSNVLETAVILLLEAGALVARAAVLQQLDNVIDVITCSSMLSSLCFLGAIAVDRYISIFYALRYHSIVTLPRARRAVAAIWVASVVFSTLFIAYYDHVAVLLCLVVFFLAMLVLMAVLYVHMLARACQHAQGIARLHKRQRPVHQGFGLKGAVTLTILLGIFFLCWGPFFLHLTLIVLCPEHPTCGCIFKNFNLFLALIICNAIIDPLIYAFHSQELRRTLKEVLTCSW
Sequence of MCR4 (P32245 whole entry): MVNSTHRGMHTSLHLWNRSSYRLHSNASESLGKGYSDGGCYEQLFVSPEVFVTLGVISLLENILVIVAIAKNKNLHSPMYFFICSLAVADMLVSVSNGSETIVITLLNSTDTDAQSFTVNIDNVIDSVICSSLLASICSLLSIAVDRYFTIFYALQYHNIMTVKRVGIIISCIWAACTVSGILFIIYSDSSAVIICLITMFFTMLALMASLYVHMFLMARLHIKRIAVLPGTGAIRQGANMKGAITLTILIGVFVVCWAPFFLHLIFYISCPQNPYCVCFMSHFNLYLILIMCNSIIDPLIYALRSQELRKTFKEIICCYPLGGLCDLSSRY

Binder | MCR1 EC50 (nM); cAMP production, LANCE cAMP assay, CHO-MCR1 cells, cell pool B [1] [nM] | MCR3 EC50 (nM); cAMP production, LANCE cAMP assay, CHO-MCR3 cells, cell pool B [2] [nM] | MCR4 EC50 (nM); cAMP production, LANCE cAMP assay, CHO-MCR4 cells, cell pool B [3] [nM] | also measured
ACTH1-24-natural N-terminal spacer-α-MSH (peptide) peptide: SYSMEHFRWGKPVGKKRRPVKVYPPLPEGGPEPRSDGAKPGPREGKRSYSMEHFRWGKPV | 0.82 | 6.2 | > 20 | 
SYSMEHFRWGKPVGKKAAAVKVYPSYS[Nle]EH[dF]RWGKPV [ACTH1-24-point-3-5-NDP-α-MSH] |  |  |  | MCR1 EC50 (nM); cAMP production, LANCE cAMP assay, CHO-MCR1 cells, cell pool C [1]: 0.32 nM; MCR3 EC50 (nM); cAMP production, LANCE cAMP assay, CHO-MCR3 cells, cell pool C [2]: 0.92 nM; MCR5 EC50 (nM); cAMP production, LANCE cAMP assay, CHO-MCR5 cells, cell pool C [4]: 25 nM; MCR4 EC50 (nM); cAMP production, LANCE cAMP assay, CHO-MCR4 cells, cell pool C [3]: 2.2 nM
ACTH1-24-natural N-terminal spacer-NDP-α-MSH (ends and bridges not checked) peptide: SYSMEHFRWGKPVGKKRRPVKVYPPLPEGGPEPRSDGAKPGPREGKRSYS[Nle]EH[dF]RWGKPV | 0.63 | 0.62 | 1.6 | 
SYSMEHFRWGKPVGAARRPVKVYPSYS[Nle]EH[dF]RWGKPV (ends and bridges not checked) [ACTH1-24-point-1-2-NDP-α-MSH] |  |  |  | MCR1 EC50 (nM); cAMP production, LANCE cAMP assay, CHO-MCR1 cells, cell pool C [1]: 0.28 nM; MCR3 EC50 (nM); cAMP production, LANCE cAMP assay, CHO-MCR3 cells, cell pool C [2]: 0.72 nM; MCR5 EC50 (nM); cAMP production, LANCE cAMP assay, CHO-MCR5 cells, cell pool C [4]: 21 nM; MCR4 EC50 (nM); cAMP production, LANCE cAMP assay, CHO-MCR4 cells, cell pool C [3]: 1.4 nM
YVMGHFRWDRFGKRSYSMEHFRWGKPVGKKRRPVKVYP [γ-MSH-ACTH1-24] |  |  |  | MCR1 EC50 (nM); cAMP production, LANCE cAMP assay, CHO-MCR1 cells, cell pool A [1]: 22 nM; MCR3 EC50 (nM); cAMP production, LANCE cAMP assay, CHO-MCR3 cells, cell pool A [2]: 38 nM
NDP-α-MSH-linker-MMP site-linker-ACTH1-24 (peptide) peptide: Ac-SYS[Nle]EH[dF]RWGKPVGGGGSPLGLWAGGGGSSYSMEHFRWGKPVGKKRRPVKVYP | 2.4 | 17 | 14 | 
XEHXRWSYSMEHFRWGKPVGKKRRPVKVYP (Nle at position 1 and dPhe at position 4 as printed: Nle-EH-dPhe-RWSYSMEHFRWGKPVGKKRRPVKVYP) [NDP-ACTH4-9-ACTH1-24] | 0.17 | 6.8 | 0.8 | 
SYSMEHFRWGKPVGKKRRPVKVYPGGGGSRRKRSYSMEHFRWGKPV [ACTH1-24-proconvertase-α-MSH] | 0.92 | 6.1 | 26 | 
ACTH1-24-linker-Furin site-linker-NDP-α-MSH (ends and bridges not checked) peptide: SYSMEHFRWGKPVGKKRRPVKVYPGGGGSRRKRGGGGSSYS[Nle]EH[dF]RWGKPV | 0.202 | 0.453 | 1.9 | 
ACTH1-24-linker-MMP (broad) site-linker-NDP-α-MSH (ends and bridges not checked) peptide: SYSMEHFRWGKPVGKKRRPVKVYPGGGGSPAGLVAGGGGSSYS[Nle]EH[dF]RWGKPV | 0.528 | 1 | 4.8 | MCR1 EC50 (nM); cAMP production, LANCE cAMP assay, CHO-MCR1 cells, cell pool B (second value printed below the first) [1]: 0.36 nM
NDP-α-MSH-linker-Furin site-linker-ACTH1-24 (peptide) peptide: Ac-SYS[Nle]EH[dF]RWGKPVGGGGSRRKRGGGGSSYSMEHFRWGKPVGKKRRPVKVYP | 0.333 | 4 | 6.5 | 
SYSXEHXRWGKPVGKKRRPVKVYP (Nle and DPhe as printed: SYS-Nle-EH-DPhe-RWGKPVGKKRRPVKVYP) [NDP-ACTH] |  |  |  | MCR1 EC50 (nM); cAMP production, LANCE cAMP assay, CHO-MCR1 cells, cell pool C [1]: 0.11 nM; MCR3 EC50 (nM); cAMP production, LANCE cAMP assay, CHO-MCR3 cells, cell pool C [2]: 0.21 nM; MCR5 EC50 (nM); cAMP production, LANCE cAMP assay, CHO-MCR5 cells, cell pool C [4]: 1.1 nM; MCR4 EC50 (nM); cAMP production, LANCE cAMP assay, CHO-MCR4 cells, cell pool C [3]: 0.22 nM
YVMGHFRWDRFGRRNSSSSGSSGAGQKR [γ-MSH with linker] | 19 | 11 | > 100 | 
NDP-α-MSH-linker-MMP (broad) site-linker-ACTH1-24 (peptide) peptide: Ac-SYS[Nle]EH[dF]RWGKPVGGGGSPAGLVAGGGGSSYSMEHFRWGKPVGKKRRPVKVYP | 0.295 | 1.5 | 1.9 | 
SYSMEHFRWGKPVGAARRPVKVYP [ACTH1-24-point-1-2] |  |  |  | MCR1 EC50 (nM); cAMP production, LANCE cAMP assay, CHO-MCR1 cells, cell pool C [1]: 0.43 nM; MCR3 EC50 (nM); cAMP production, LANCE cAMP assay, CHO-MCR3 cells, cell pool C [2]: 10 nM; MCR5 EC50 (nM); cAMP production, LANCE cAMP assay, CHO-MCR5 cells, cell pool C [4]: 275 nM; MCR4 EC50 (nM); cAMP production, LANCE cAMP assay, CHO-MCR4 cells, cell pool C [3]: 62 nM
ACTH1-24-natural C-terminal spacer-NDP-α-MSH (ends and bridges not checked) peptide: SYSMEHFRWGKPVGKKRRPVKVYPELTGQRLREGDGPDGPADDGAGASYS[Nle]EH[dF]RWGKPV | 0.8 | 1.66 | 8.7 | 
[Nle]EH[dF]RW[βAla]G[βAla][Nle]EH[dF]RW [NDP-ACTH4-9-βAla-G-βAla-NDP-ACTH4-9] | 0.35 | 25 | 6.7 | 
ACTH1-24-linker-MMP site-linker-NDP-α-MSH (ends and bridges not checked) peptide: SYSMEHFRWGKPVGKKRRPVKVYPGGGGSPLGLWAGGGGSSYS[Nle]EH[dF]RWGKPV | 1.6 | 4.7 | 5.8 | 
SYSMEHFRWGKPVGKKRRPVKVYPNGAEDESAEAFPLEFKR [ACTH1-39] | 0.55 | 18 | 31 | 
SYSMEHFRWGKPVGKKRRAVKVYPSYS[Nle]EH[dF]RWGKPV [ACTH1-24-point-5-NDP-α-MSH] |  |  |  | MCR1 EC50 (nM); cAMP production, LANCE cAMP assay, CHO-MCR1 cells, cell pool C [1]: 0.44 nM; MCR3 EC50 (nM); cAMP production, LANCE cAMP assay, CHO-MCR3 cells, cell pool C [2]: 1.5 nM; MCR5 EC50 (nM); cAMP production, LANCE cAMP assay, CHO-MCR5 cells, cell pool C [4]: 28 nM; MCR4 EC50 (nM); cAMP production, LANCE cAMP assay, CHO-MCR4 cells, cell pool C [3]: 3.4 nM
XEHXRWAGASYSMEHFRWGKPVGKKRRPVKVYP (Nle, dPhe and β-Ala residues as printed: Nle-EH-dPhe-RW-β-Ala-G-β-Ala-SYSMEHFRWGKPVGKKRRPVKVYP) [NDP-ACTH4-9-βAla-G-βAla-ACTH1-24] | 0.16 | 5.5 | 2.4 | 
SYSMEHFRWGKPVGKKAAAVKVYP [ACTH1-24-point-3-5] |  |  |  | MCR1 EC50 (nM); cAMP production, LANCE cAMP assay, CHO-MCR1 cells, cell pool C [1]: 0.54 nM; MCR3 EC50 (nM); cAMP production, LANCE cAMP assay, CHO-MCR3 cells, cell pool C [2]: 14 nM; MCR5 EC50 (nM); cAMP production, LANCE cAMP assay, CHO-MCR5 cells, cell pool C [4]: > 100 nM; MCR4 EC50 (nM); cAMP production, LANCE cAMP assay, CHO-MCR4 cells, cell pool C [3]: 128 nM
SYSMEHFRWGKPVGKKRRAVKVYP [ACTH1-24-point-5] |  |  |  | MCR1 EC50 (nM); cAMP production, LANCE cAMP assay, CHO-MCR1 cells, cell pool C [1]: 0.31 nM; MCR3 EC50 (nM); cAMP production, LANCE cAMP assay, CHO-MCR3 cells, cell pool C [2]: 10 nM; MCR5 EC50 (nM); cAMP production, LANCE cAMP assay, CHO-MCR5 cells, cell pool C [4]: > 100 nM; MCR4 EC50 (nM); cAMP production, LANCE cAMP assay, CHO-MCR4 cells, cell pool C [3]: 60 nM
ACTH1-24-natural C-terminal spacer-α-MSH (peptide) peptide: SYSMEHFRWGKPVGKKRRPVKVYPELTGQRLREGDGPDGPADDGAGASYSMEHFRWGKPV | 1.02 | 22 | > 20 | 
YVMGHFRWDRFGRRNSSSSGSSGAGQSYSMEHFRWGKPVGKKRRPVKVYP [γ-MSH-ACTH1-24 linker without cleavable site] |  |  |  | MCR1 EC50 (nM); cAMP production, LANCE cAMP assay, CHO-MCR1 cells, cell pool A [1]: 11 nM; MCR3 EC50 (nM); cAMP production, LANCE cAMP assay, CHO-MCR3 cells, cell pool A [2]: 16 nM
SYSMEHFRWGKPVGKKRRPVKVYPGGGGSRRKRSYS[Nle]EH[dF]RWGKPV [ACTH1-24-proconvertase-NDP-α-MSH] | 0.44 | 0.51 | 1.6 | 
YVMGHFRWDRFGSYSMEHFRWGKPVGKKRRPVKVYP [γ-MSH-ACTH1-24 without linker and cleavage site] |  |  |  | MCR1 EC50 (nM); cAMP production, LANCE cAMP assay, CHO-MCR1 cells, cell pool A [1]: 12 nM; MCR3 EC50 (nM); cAMP production, LANCE cAMP assay, CHO-MCR3 cells, cell pool A [2]: 33 nM
SYSMEHFRWGKPVGKKRRPVKVYPSYS[Nle]EH[dF]RWGKPV (ends and bridges not checked) [ACTH1-24-NDP-α-MSH] |  |  |  | MCR1 EC50 (nM); cAMP production, LANCE cAMP assay, CHO-MCR1 cells, cell pool C [1]: 0.28 nM; MCR3 EC50 (nM); cAMP production, LANCE cAMP assay, CHO-MCR3 cells, cell pool C [2]: 1.5 nM; MCR5 EC50 (nM); cAMP production, LANCE cAMP assay, CHO-MCR5 cells, cell pool C [4]: 24 nM; MCR4 EC50 (nM); cAMP production, LANCE cAMP assay, CHO-MCR4 cells, cell pool C [3]: 2.3 nM

Source: patent US20190054150A1 (AEQUUS BIOPHARMA, published 2019)
